Here are results for 13 molecules from patent US20220267436A1 (NANJING GENSCRIPT BIOTECH, published 2022).

To fix the notation:
T1: human LAG-3 (human, UniProt P18627 23-525)
T1 construct: whole, on cells; also called LAG-3 antigen
T1 sequence (looked up): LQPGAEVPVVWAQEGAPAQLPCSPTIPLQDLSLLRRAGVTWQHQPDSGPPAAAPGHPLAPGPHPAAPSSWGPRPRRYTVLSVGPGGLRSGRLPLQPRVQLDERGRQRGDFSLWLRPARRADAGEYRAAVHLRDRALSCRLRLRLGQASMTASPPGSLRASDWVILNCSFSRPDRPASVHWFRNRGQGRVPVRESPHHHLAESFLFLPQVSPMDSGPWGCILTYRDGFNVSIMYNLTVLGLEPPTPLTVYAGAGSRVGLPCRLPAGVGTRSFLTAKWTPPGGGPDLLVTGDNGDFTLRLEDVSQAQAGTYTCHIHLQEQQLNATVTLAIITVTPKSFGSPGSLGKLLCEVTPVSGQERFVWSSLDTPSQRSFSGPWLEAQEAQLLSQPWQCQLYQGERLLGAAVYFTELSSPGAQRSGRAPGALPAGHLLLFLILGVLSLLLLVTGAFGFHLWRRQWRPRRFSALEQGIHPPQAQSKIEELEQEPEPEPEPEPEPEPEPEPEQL

B1: bispecific antibody LAG3-G9-LC (bispecific antibody, human IgG4 S228P, kappa)
heavy: not shown
light: EIVLTQSPATLSLSPGERATLSCRASENVGTYISWYQQKPGQAPRLLIYGASNRYTGIPARFSGSGSGTDFTLTISSLEPEDFAVYYCGESYGHLYTFGGGTKVEIKRTVAAPSVFIFPPSDEQLKSGTASVVCLLNNFYPREAKVQWKVDNALQSGNSQESVTEQDSKDSTYSLSSTLTLSKADYEKHKVYACEVTHQGLSSPVTKSFNRGECGGGGSGGGSEVQLVESGGGLVQPGGSLRLSCAASGYTVSSYCMGWFRQAPGKGREGVSAIDSDGSVSYADSVKGRFTISKDNSKNTLYLQMNSLRAEDTAVYFCAADLCWVDQDQGEYNTWGQGTLVTVSS
notes: Two identical fused chains and two identical natural chains; also called L3 + H0
B2: anti-CD47 monoclonal antibody (mAb) (antibody, human IgG4 S228P, kappa, V domains shown)
VH: EVQLVQSGAEVKKPGSSVKVSCKASGYSFTHHWIHWVRQAPGQGLEWMGMIDASDSETRLSQKFKDRVTITADKSTSTAYMELSSLRSEDTAVYYCARLGRYYFDYWGQGTTVTVSS
VL: EIVLTQSPATLSLSPGERATLSCRASENVGTYISWYQQKPGQAPRLLIYGASNRYTGIPARFSGSGSGTDFTLTISSLEPEDFAVYYCGESYGHLYTFGGGTKVEIKR
notes: Full-length antibody composed of heavy chain H0 and light chain L0; also called anti-CD47 mAb; anti-CD47 antibody control
B3: bispecific antibody LAG3-G15-LC (bispecific antibody, human IgG4 S228P, kappa)
heavy: not shown
light: EIVLTQSPATLSLSPGERATLSCRASENVGTYISWYQQKPGQAPRLLIYGASNRYTGIPARFSGSGSGTDFTLTISSLEPEDFAVYYCGESYGHLYTFGGGTKVEIKRTVAAPSVFIFPPSDEQLKSGTASVVCLLNNFYPREAKVQWKVDNALQSGNSQESVTEQDSKDSTYSLSSTLTLSKADYEKHKVYACEVTHQGLSSPVTKSFNRGECGGGGSGGGGSGGGGSEVQLVESGGGLVQPGGSLRLSCAASGYTVSSYCMGWFRQAPGKGREGVSAIDSDGSVSYADSVKGRFTISKDNSKNTLYLQMNSLRAEDTAVYFCAADLCWVDQDQGEYNTWGQGTLVTVSS
notes: Two identical fused chains and two identical natural chains; also called L5 + H0
B4: bispecific antibody LAG3-E-LC (bispecific antibody, human IgG4 S228P, kappa)
heavy: not shown
light: EIVLTQSPATLSLSPGERATLSCRASENVGTYISWYQQKPGQAPRLLIYGASNRYTGIPARFSGSGSGTDFTLTISSLEPEDFAVYYCGESYGHLYTFGGGTKVEIKRTVAAPSVFIFPPSDEQLKSGTASVVCLLNNFYPREAKVQWKVDNALQSGNSQESVTEQDSKDSTYSLSSTLTLSKADYEKHKVYACEVTHQGLSSPVTKSFNRGECEPKSSDKTHTSPPSPEVQLVESGGGLVQPGGSLRLSCAASGYTVSSYCMGWFRQAPGKGREGVSAIDSDGSVSYADSVKGRFTISKDNSKNTLYLQMNSLRAEDTAVYFCAADLCWVDQDQGEYNTWGQGTLVTVSS
notes: Two identical fused chains and two identical natural chains; also called L1 + H0
B5: bispecific antibody LAG3-E-LN (bispecific antibody, human IgG4 S228P, kappa)
heavy: not shown
light: EVQLVESGGGLVQPGGSLRLSCAASGYTVSSYCMGWFRQAPGKGREGVSAIDSDGSVSYADSVKGRFTISKDNSKNTLYLQMNSLRAEDTAVYFCAADLCWVDQDQGEYNTWGQGTLVTVSSEPKSSDKTHTSPPSPEIVLTQSPATLSLSPGERATLSCRASENVGTYISWYQQKPGQAPRLLIYGASNRYTGIPARFSGSGSGTDFTLTISSLEPEDFAVYYCGESYGHLYTFGGGTKVEIKRTVAAPSVFIFPPSDEQLKSGTASVVCLLNNFYPREAKVQWKVDNALQSGNSQESVTEQDSKDSTYSLSSTLTLSKADYEKHKVYACEVTHQGLSSPVTKSFNRGEC
notes: Two identical fused chains and two identical natural chains; also called L2 + H0
B6: bispecific antibody LAG3-G15-LN (bispecific antibody, human IgG4 S228P, kappa)
heavy: not shown
light: EVQLVESGGGLVQPGGSLRLSCAASGYTVSSYCMGWFRQAPGKGREGVSAIDSDGSVSYADSVKGRFTISKDNSKNTLYLQMNSLRAEDTAVYFCAADLCWVDQDQGEYNTWGQGTLVTVSSGGGGSGGGGSGGGGSEIVLTQSPATLSLSPGERATLSCRASENVGTYISWYQQKPGQAPRLLIYGASNRYTGIPARFSGSGSGTDFTLTISSLEPEDFAVYYCGESYGHLYTFGGGTKVEIKRTVAAPSVFIFPPSDEQLKSGTASVVCLLNNFYPREAKVQWKVDNALQSGNSQESVTEQDSKDSTYSLSSTLTLSKADYEKHKVYACEVTHQGLSSPVTKSFNRGEC
notes: Two identical fused chains and two identical natural chains; also called L6 + H0
B7: bispecific antibody LAG3-G9-LN (bispecific antibody, human IgG4 S228P, kappa)
heavy: not shown
light: EVQLVESGGGLVQPGGSLRLSCAASGYTVSSYCMGWFRQAPGKGREGVSAIDSDGSVSYADSVKGRFTISKDNSKNTLYLQMNSLRAEDTAVYFCAADLCWVDQDQGEYNTWGQGTLVTVSSGGGGSGGGSEIVLTQSPATLSLSPGERATLSCRASENVGTYISWYQQKPGQAPRLLIYGASNRYTGIPARFSGSGSGTDFTLTISSLEPEDFAVYYCGESYGHLYTFGGGTKVEIKRTVAAPSVFIFPPSDEQLKSGTASVVCLLNNFYPREAKVQWKVDNALQSGNSQESVTEQDSKDSTYSLSSTLTLSKADYEKHKVYACEVTHQGLSSPVTKSFNRGEC
notes: Two identical fused chains and two identical natural chains; also called L4 + H0
B8: bispecific antibody LAG3-E-HC (bispecific antibody, human IgG4 S228P, kappa)
heavy: not shown
light: EIVLTQSPATLSLSPGERATLSCRASENVGTYISWYQQKPGQAPRLLIYGASNRYTGIPARFSGSGSGTDFTLTISSLEPEDFAVYYCGESYGHLYTFGGGTKVEIKRTVAAPSVFIFPPSDEQLKSGTASVVCLLNNFYPREAKVQWKVDNALQSGNSQESVTEQDSKDSTYSLSSTLTLSKADYEKHKVYACEVTHQGLSSPVTKSFNRGEC
notes: Two identical fused chains and two identical natural chains; also called H1 + L0
B9: bispecific antibody LAG3-G9-HN (bispecific antibody, human IgG4 S228P, kappa)
heavy: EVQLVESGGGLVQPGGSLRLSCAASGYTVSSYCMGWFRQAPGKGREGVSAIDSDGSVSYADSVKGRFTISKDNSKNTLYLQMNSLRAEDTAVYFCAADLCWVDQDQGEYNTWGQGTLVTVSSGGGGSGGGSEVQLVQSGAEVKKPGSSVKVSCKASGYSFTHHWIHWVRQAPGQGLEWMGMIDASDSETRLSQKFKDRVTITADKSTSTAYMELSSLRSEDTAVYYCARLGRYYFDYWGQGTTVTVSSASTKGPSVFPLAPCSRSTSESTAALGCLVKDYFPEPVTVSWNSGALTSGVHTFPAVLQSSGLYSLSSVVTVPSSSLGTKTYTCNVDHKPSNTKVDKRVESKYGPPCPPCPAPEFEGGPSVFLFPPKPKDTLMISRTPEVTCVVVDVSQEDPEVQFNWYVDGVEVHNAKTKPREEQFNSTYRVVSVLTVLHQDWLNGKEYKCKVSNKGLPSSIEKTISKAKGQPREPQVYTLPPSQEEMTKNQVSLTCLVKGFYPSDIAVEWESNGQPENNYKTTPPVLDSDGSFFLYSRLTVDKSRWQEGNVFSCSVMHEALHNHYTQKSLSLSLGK
light: EIVLTQSPATLSLSPGERATLSCRASENVGTYISWYQQKPGQAPRLLIYGASNRYTGIPARFSGSGSGTDFTLTISSLEPEDFAVYYCGESYGHLYTFGGGTKVEIKRTVAAPSVFIFPPSDEQLKSGTASVVCLLNNFYPREAKVQWKVDNALQSGNSQESVTEQDSKDSTYSLSSTLTLSKADYEKHKVYACEVTHQGLSSPVTKSFNRGEC
notes: Two identical fused chains and two identical natural chains; also called H4 + L0
B10: bispecific antibody LAG3-G15-HC (bispecific antibody, human IgG4 S228P, kappa)
heavy: not shown
light: EIVLTQSPATLSLSPGERATLSCRASENVGTYISWYQQKPGQAPRLLIYGASNRYTGIPARFSGSGSGTDFTLTISSLEPEDFAVYYCGESYGHLYTFGGGTKVEIKRTVAAPSVFIFPPSDEQLKSGTASVVCLLNNFYPREAKVQWKVDNALQSGNSQESVTEQDSKDSTYSLSSTLTLSKADYEKHKVYACEVTHQGLSSPVTKSFNRGEC
notes: Two identical fused chains and two identical natural chains; also called H5 + L0
B11: bispecific antibody LAG3-G9-HC (bispecific antibody, human IgG4 S228P, kappa)
heavy: not shown
light: EIVLTQSPATLSLSPGERATLSCRASENVGTYISWYQQKPGQAPRLLIYGASNRYTGIPARFSGSGSGTDFTLTISSLEPEDFAVYYCGESYGHLYTFGGGTKVEIKRTVAAPSVFIFPPSDEQLKSGTASVVCLLNNFYPREAKVQWKVDNALQSGNSQESVTEQDSKDSTYSLSSTLTLSKADYEKHKVYACEVTHQGLSSPVTKSFNRGEC
notes: Two identical fused chains and two identical natural chains; also called LAGS-G9-HC; H3 + L0
B12: bispecific antibody LAG3-G15-HN (bispecific antibody, human IgG4 S228P, kappa)
heavy: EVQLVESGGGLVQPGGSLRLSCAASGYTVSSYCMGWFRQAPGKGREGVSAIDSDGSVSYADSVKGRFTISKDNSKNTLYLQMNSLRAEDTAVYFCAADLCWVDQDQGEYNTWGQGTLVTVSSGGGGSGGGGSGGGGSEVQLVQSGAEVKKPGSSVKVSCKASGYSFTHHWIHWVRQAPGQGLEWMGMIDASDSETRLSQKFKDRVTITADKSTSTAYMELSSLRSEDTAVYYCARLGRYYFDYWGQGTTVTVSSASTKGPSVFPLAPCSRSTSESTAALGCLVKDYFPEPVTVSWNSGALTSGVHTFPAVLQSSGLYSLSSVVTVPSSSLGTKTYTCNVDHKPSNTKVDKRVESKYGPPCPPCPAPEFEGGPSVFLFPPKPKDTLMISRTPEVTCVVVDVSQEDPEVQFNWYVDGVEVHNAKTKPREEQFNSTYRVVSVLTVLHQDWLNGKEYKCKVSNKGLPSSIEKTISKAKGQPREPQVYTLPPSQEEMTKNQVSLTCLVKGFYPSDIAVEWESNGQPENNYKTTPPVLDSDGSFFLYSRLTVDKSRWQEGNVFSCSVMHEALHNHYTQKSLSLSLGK
light: EIVLTQSPATLSLSPGERATLSCRASENVGTYISWYQQKPGQAPRLLIYGASNRYTGIPARFSGSGSGTDFTLTISSLEPEDFAVYYCGESYGHLYTFGGGTKVEIKRTVAAPSVFIFPPSDEQLKSGTASVVCLLNNFYPREAKVQWKVDNALQSGNSQESVTEQDSKDSTYSLSSTLTLSKADYEKHKVYACEVTHQGLSSPVTKSFNRGEC
notes: Two identical fused chains and two identical natural chains; also called H6 + L0
B13: bispecific antibody LAG3-E-HN (bispecific antibody, human IgG4 S228P, kappa)
heavy: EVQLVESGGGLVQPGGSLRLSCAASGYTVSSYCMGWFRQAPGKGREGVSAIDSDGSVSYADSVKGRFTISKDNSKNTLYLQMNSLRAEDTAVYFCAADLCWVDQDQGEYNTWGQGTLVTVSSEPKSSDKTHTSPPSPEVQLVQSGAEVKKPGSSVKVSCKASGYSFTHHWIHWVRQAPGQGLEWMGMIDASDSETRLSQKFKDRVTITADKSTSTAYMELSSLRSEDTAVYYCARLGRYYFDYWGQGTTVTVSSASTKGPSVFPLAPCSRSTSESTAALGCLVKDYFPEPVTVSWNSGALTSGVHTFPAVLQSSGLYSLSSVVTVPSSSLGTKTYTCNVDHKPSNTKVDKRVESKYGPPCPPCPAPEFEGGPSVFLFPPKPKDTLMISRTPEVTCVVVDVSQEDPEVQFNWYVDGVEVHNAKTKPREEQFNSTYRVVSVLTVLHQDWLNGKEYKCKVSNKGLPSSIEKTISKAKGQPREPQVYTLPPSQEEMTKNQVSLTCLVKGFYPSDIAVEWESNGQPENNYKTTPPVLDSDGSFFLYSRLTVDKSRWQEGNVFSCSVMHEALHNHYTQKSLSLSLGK
light: EIVLTQSPATLSLSPGERATLSCRASENVGTYISWYQQKPGQAPRLLIYGASNRYTGIPARFSGSGSGTDFTLTISSLEPEDFAVYYCGESYGHLYTFGGGTKVEIKRTVAAPSVFIFPPSDEQLKSGTASVVCLLNNFYPREAKVQWKVDNALQSGNSQESVTEQDSKDSTYSLSSTLTLSKADYEKHKVYACEVTHQGLSSPVTKSFNRGEC
notes: Two identical fused chains and two identical natural chains; also called H2 + L0

T2 sequence (Q08722 19-323): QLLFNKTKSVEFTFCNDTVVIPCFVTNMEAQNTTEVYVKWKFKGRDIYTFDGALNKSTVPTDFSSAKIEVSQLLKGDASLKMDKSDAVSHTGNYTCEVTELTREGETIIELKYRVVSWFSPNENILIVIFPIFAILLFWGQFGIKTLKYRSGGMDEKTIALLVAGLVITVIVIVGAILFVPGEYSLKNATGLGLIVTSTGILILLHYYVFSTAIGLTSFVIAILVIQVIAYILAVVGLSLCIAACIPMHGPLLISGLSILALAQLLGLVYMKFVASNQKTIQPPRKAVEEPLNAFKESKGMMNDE

One assay concerns the target T2, human CD47 (human, UniProt Q08722 19-323).
T2 construct: whole, on cells; also called CD47 antigen; integrin associated protein
The experiment in a line: flow cytometry on CHO-K1 cells expressing human CD47. How it is done:
(§1) For the constructed series of bispecific antibodies, the affinity of these samples with antigens was measured by using a flow cytometer. […] Then, an antibody-antigen binding curve was generated based on the geometric mean, raw data of four parameters was plotted by using the […] Prism V6.02 software, and a best fitted value program was compiled to analyze EC₅₀.
On the technique in general: Flow cytometry measures light scatter and fluorescence of single cells or particles in a stream.
In the case of B1, the binding result is recorded as “binds”. Same read-out and setting: to B2 belongs “binds”.

In the case of B3, the binding result was “binds”.

The next assay concerns the target T1, human LAG-3. The experiment in a line: flow cytometry on CHO-K1 cells expressing human LAG-3. The method, then:
as §1
As to B1, the binding result was “binds”. Consider B4, for which the binding result is listed as “binds”. On to B5, for which the binding result is “binds”. For B3, the binding result was “binds”. For the molecule B6, the binding result is given as “binds”. For B7, the binding result is on record as “binds”.

Turning to B8, the binding result is given as “binds”. On the same count and under the same terms, for B9 the value was “binds”. On the same count and under the same terms, for B10 the value was “binds”; for B11, “binds”. The same measure, in the same setting: for B12 the value was “binds”; for B13, “binds”.
